Source: the Immune Epitope Database (IEDB)

Legend:
Assay in all cases: IEDB peptide-MHC binding, purified MHC/competitive/radioactivity; filed as Kd, often an IC50 or EC50 that approximates it; ≥ and ≤ were set here for values at or beyond the usual limits of such assays
HLA-A*03:01 = target: HLA-A*03:01
HLA-A*33:01 = target: HLA-A*33:01
HLA-A*68:01 = target: HLA-A*68:01
HLA-A*31:01 = target: HLA-A*31:01
HLA-A*11:01 = target: HLA-A*11:01
[1] = source organism: Vaccinia virus WR
[2] = source organism: Mammarenavirus guanaritoense
[3] = source organism: SARS coronavirus Tor2
[4] = source organism: Lymphocytic choriomeningitis virus (strain Armstrong)
[5] = source organism: Mammarenavirus brazilense

Row | Sequence | Kd (HLA-A*03:01; [1]) [nM] | Kd (HLA-A*33:01; [1]) [nM] | Kd (HLA-A*68:01; [1]) [nM] | Kd (HLA-A*31:01; [1]) [nM] | Kd (HLA-A*11:01; [1]) [nM] | further results
1 | HAFDAPTLY | 33.9 | ≥ 77700 | 30.3 | ≥ 48400 | 185 | –
2 | SSFIMRNFLR | 2100 | 870 | 13.6 | 1.3 | 8.89 | –
3 | CCNWLDRCRH | – | – | – | – | – | Kd (HLA-A*03:01; [2]): ≥ 70000 nM; Kd (HLA-A*33:01; [2]): 15900 nM; Kd (HLA-A*68:01; [2]): ≥ 70100 nM; Kd (HLA-A*31:01; [2]): 1350 nM; Kd (HLA-A*11:01; [2]): ≥ 69700 nM
4 | IAPGIADIR | ≥ 78000 | ≥ 29000 | 29.4 | ≥ 23900 | ≥ 50100 | –
5 | PSAEDNYLAK | ≥ 32200 | 4120 | 5710 | ≥ 20300 | 8.64 | –
6 | GLVASIKNFK | – | – | – | – | – | Kd (HLA-A*03:01; [3]): 630 nM; Kd (HLA-A*33:01; [3]): ≥ 20600 nM; Kd (HLA-A*68:01; [3]): 507 nM; Kd (HLA-A*31:01; [3]): 7560 nM; Kd (HLA-A*11:01; [3]): 1320 nM
7 | PIFSDLLKY | ≥ 29500 | ≥ 77700 | ≥ 36900 | ≥ 56900 | 6540 | –
8 | SCQGSDDIR | – | – | – | – | – | Kd (HLA-A*03:01; [4]): ≥ 78000 nM; Kd (HLA-A*33:01; [4]): ≥ 51400 nM; Kd (HLA-A*68:01; [4]): ≥ 21800 nM; Kd (HLA-A*31:01; [4]): ≥ 33900 nM; Kd (HLA-A*11:01; [4]): ≥ 77900 nM
9 | DVKVLAARLK | 1160 | 5070 | 592 | 3000 | 2350 | –
10 | SAVVDNKLK | ≥ 23600 | ≥ 77700 | 580 | ≥ 58900 | 508 | –
11 | VIVVPVIDR | ≥ 78000 | ≥ 77700 | 279 | 9910 | 675 | –
12 | LIMFEQYFIY | 1030 | 8190 | 1720 | 14000 | 134 | –
13 | QTTVNTLSER | 1520 | 155 | 5.22 | 21.7 | 76.8 | –
14 | NFGTIILNK | 1350 | 1540 | 508 | 1270 | 1090 | –
15 | LLNSMMNRDK | 39.2 | ≥ 27500 | ≥ 70200 | 690 | 1780 | –
16 | ALCTFLLNK | – | – | – | – | – | Kd (HLA-A*03:01; [3]): 0.778 nM; Kd (HLA-A*33:01; [3]): 6670 nM; Kd (HLA-A*68:01; [3]): 1050 nM; Kd (HLA-A*31:01; [3]): 352 nM; Kd (HLA-A*11:01; [3]): 2.74 nM

Row | Sequence | Kd (HLA-A*03:01; [1]) [nM] | Kd (HLA-A*33:01; [1]) [nM] | Kd (HLA-A*68:01; [1]) [nM] | Kd (HLA-A*31:01; [1]) [nM] | Kd (HLA-A*11:01; [1]) [nM] | further results
17 | MATMLEYVRY | 588 | 13500 | 116 | 1620 | 21.8 | –
18 | ESRDRKWLY | ≥ 51200 | 10100 | 3930 | ≥ 61000 | 10300 | –
19 | NIADAARHY | 6720 | 7730 | 469 | 5040 | 11300 | –
20 | NSFIISTLNK | 416 | 4460 | 19.2 | 648 | 0.447 | –
21 | VIPFDDIVR | ≥ 78000 | 302 | 174 | 338 | 9600 | –
22 | IAQSKGLYR | – | – | – | – | – | Kd (HLA-A*03:01; [3]): 3880 nM; Kd (HLA-A*33:01; [3]): 152 nM; Kd (HLA-A*68:01; [3]): 105 nM; Kd (HLA-A*31:01; [3]): 98 nM; Kd (HLA-A*11:01; [3]): 224 nM
23 | QSLCFLLTQK | – | – | – | – | – | Kd (HLA-A*03:01; [3]): 6.2 nM; Kd (HLA-A*33:01; [3]): 1470 nM; Kd (HLA-A*68:01; [3]): 63.8 nM; Kd (HLA-A*31:01; [3]): 54.2 nM; Kd (HLA-A*11:01; [3]): 10.8 nM
24 | DFESVTNSVY | ≥ 33300 | 14800 | 11800 | 15600 | ≥ 25400 | –
25 | NFDYPFFRK | 9090 | 308 | 393 | 90.2 | 191 | –
26 | CTDPSERVFK | 543 | ≥ 54500 | 56 | 2930 | 10 | –
27 | YVIRHVDGK | 1450 | ≥ 77700 | 1.72 | ≥ 77900 | 10.2 | –
28 | MVNHSTYYV | – | – | – | – | – | Kd (HLA-A*03:01; [5]): 94.7 nM; Kd (HLA-A*33:01; [5]): 810 nM; Kd (HLA-A*68:01; [5]): 94.8 nM; Kd (HLA-A*31:01; [5]): 10.3 nM; Kd (HLA-A*11:01; [5]): 590 nM
29 | LLDSYFVVK | – | – | – | – | – | Kd (HLA-A*03:01; [3]): 40.3 nM; Kd (HLA-A*33:01; [3]): 12700 nM; Kd (HLA-A*68:01; [3]): 2060 nM; Kd (HLA-A*31:01; [3]): 1270 nM; Kd (HLA-A*11:01; [3]): 47.2 nM
30 | TLAVPYNMR | – | – | – | – | – | Kd (HLA-A*03:01; [3]): 995 nM; Kd (HLA-A*33:01; [3]): 126 nM; Kd (HLA-A*68:01; [3]): 9.36 nM; Kd (HLA-A*31:01; [3]): 152 nM; Kd (HLA-A*11:01; [3]): 3230 nM
31 | VTSLAIKNYY | 206 | 420 | 112 | 281 | 21.7 | –
